The binders below were run against T1, CD137-hisFc fusion protein (Sino Biological Cat 10041-H03H) (human, UniProt Q07011 24-186) (assay: BLI Octet, Fab).
T1 construct: Bought; also called recombinant human CD137 (fused with human Fc and His tag); not shown: His tag and human Fc

Kd [nM]	koff [s⁻¹]	kon [M⁻¹ s⁻¹]	Binder
12.6	0.00444	352000	Fab 3760 (Fab, V domains shown, Fab from E. coli; also called VH1/VL1) VH: EVQLVESGGGLVQPGGSLRLSCAASGFTFTSYGIHWVRQAPGKGLEWVSGISGAGDTTYYADSVKGRFTISRDNSKNTLYLQLNSLRAEDTAVYYCARERDYDFDYWGQGTLVTVSS VL: DIQLTQSPSSLSASVGDRVTITCRASQSVSSYLAWYQQKPGKAPKLLIYDASNLETGVPSRFSGSGSGTDFTLTISSLQPEDFATYYCQQSYSTSHTFGQGTKVEIKR
24.4	0.00746	306000	Fab 7080 (Fab, V domains shown, Fab from E. coli; also called VH43/VL43) VH: EVQLVESGGGLVQPGGSLRLSCAASGFSLSTGGVGVGWIRQAPGKGLEWVSYISGAGGTTYYADSVKGRFTISRDNSKNTLYLQLNSLRAEDTAVYYCAREGSDTVLGDWFAYWGQGTLVTVSS VL: DIQLTQSPSSLSASVGDRVTITCRASQGISSYLAWYQQKPGKAPKLLIYDASNLETGVPSRFSGSGSGTDFTLTISSLQPEDFATYYCQQYYTTPLTFGQGTKVEIKR
69.6	0.00855	123000	Fab 7087 (Fab, V domains shown, Fab from E. coli; also called VH45/VL45) VH: EVQLVESGGGLVQPGGSLRLSCAASGFSLSTGGVGVGWIRQAPGKGLEWVSYISGDGDTTYYADSVKGRFTISRDNSKNTLYLQLNSLRAEDTAVYYCAREGSTAVLGDWFAYWGQGTLVTVSS VL: DIQLTQSPSSLSASVGDRVTITCRASQGISSYLAWYQQKPGKAPKLLIYDASNLETGVPSRFSGSGSGTDFTLTISSLQPEDFATYYCQQYYTTPLTFGQGTKVEIKR
43.6	0.0111	255000	Fab 7088 (Fab, V domains shown, Fab from E. coli; also called VH46/VL46) VH: EVQLVESGGGLVQPGGSLRLSCAASGFSLSTSGVGVGWIRQAPGKGLEWVSYISGDGGSTYYADSVKGRFTISRDNSKNTLYLQLNSLRAEDTAVYYCAREGSTAVVGDWFAYWGQGTLVTVSS VL: DIQLTQSPSSLSASVGDRVTITCRASQGISSYLAWYQQKPGKAPKLLIYDASNLETGVPSRFSGSGSGTDFTLTISSLQPEDFATYYCQQYYTTPLTFGQGTKVEIKR
33.3	0.011	330000	Fab 7105 (Fab, V domains shown, Fab from E. coli; also called VH51/VL51) VH: EVQLVESGGGLVQPGGSLRLSCAASGFSLSTGGVGVGWIRQAPGKGLEWVSYISGAGSTTYYADSVKGRFTISRDNSKNTLYLQLNSLRAEDTAVYYCAREGSDTVLGDWFAYWGQGTLVTVSS VL: DIQLTQSPSSLSASVGDRVTITCRASQGISSYLAWYQQKPGKAPKLLIYDASNLETGVPSRFSGSGSGTDFTLTISSLQPEDFATYYCQQYYSTPLTFGQGTKVEIKR
29.9	0.003	100000	Fab 7079 (Fab, V domains shown, Fab from E. coli; also called VH42/VL42) VH: EVQLVESGGGLVQPGGSLRLSCAASGFSLSTSGVGVAWIRQAPGKGLEWVSSISGYGGTTYYADSVKGRFTISRDNSKNTLYLQLNSLRAEDTAVYYCAREGSDTVLGDWFAYWGQGTLVTVSS VL: DIQLTQSPSSLSASVGDRVTITCRASQGISSYLAWYQQKPGKAPKLLIYDASNLETGVPSRFSGSGSGTDFTLTISSLQPEDFATYYCQQYYTTPLTFGQGTKVEIKR
43.1	0.0123	287000	Fab 7081 (Fab, V domains shown, Fab from E. coli; also called VH44/VL44) VH: EVQLVESGGGLVQPGGSLRLSCAASGFSLSTGGVGVGWIRQAPGKGLEWVSYISGAGGTTYYADSVKGRFTISRDNSKNTLYLQLNSLRAEDTAVYYCAREGSDAVLGDWFAYWGQGTLVTVSS VL: DIQLTQSPSSLSASVGDRVTITCRASQGISSYLAWYQQKPGKAPKLLIYDASNLETGVPSRFSGSGSGTDFTLTISSLQPEDFATYYCQQYYTTPLTFGQGTKVEIKR
25.2	0.0087	345000	Fab 7078 (Fab, V domains shown, Fab from E. coli; also called VH41/VL41) VH: EVQLVESGGGLVQPGGSLRLSCAASGFSLSTGGVGVGWIRQAPGKGLEWVSYISGDGDTTYYADSVKGRFTISRDNSKNTLYLQLNSLRAEDTAVYYCAREGSDTVAGDWFAYWGQGTLVTVSS VL: DIQLTQSPSSLSASVGDRVTITCRASQGISSYLAWYQQKPGKAPKLLIYDASNLETGVPSRFSGSGSGTDFTLTISSLQPEDFATYYCQQYYTTPLTFGQGTKVEIKR
35	0.0162	462000	Fab 7100 (Fab, V domains shown, Fab from E. coli; also called VH50/VL50) VH: EVQLVESGGGLVQPGGSLRLSCAASGFSLSTSGVGVGWIRQAPGKGLEWVSYISGDGGSTYYADSVKGRFTISRDNSKNTLYLQLNSLRAEDTAVYYCAREGSDTVLGDWFAYWGQGTLVTVSS VL: DIQLTQSPSSLSASVGDRVTITCRASQGISSYLAWYQQKPGKAPKLLIYDASNLETGVPSRFSGSGSGTDFTLTISSLQPEDFATYYCQQYYSTPLTFGQGTKVEIKR
18.8	0.00934	498000	Fab 7077 (Fab, V domains shown, Fab from E. coli; also called VH40/VL40) VH: EVQLVESGGGLVQPGGSLRLSCAASGFSLSTGGVGVAWIRQAPGKGLEWVSYISGSGDTTYYADSVKGRFTISRDNSKNTLYLQLNSLRAEDTAVYYCAREGSDTVVGDWFAYWGQGTLVTVSS VL: DIQLTQSPSSLSASVGDRVTITCRASQGISSYLAWYQQKPGKAPKLLIYDASNLETGVPSRFSGSGSGTDFTLTISSLQPEDFATYYCQQYYTTPLTFGQGTKVEIKR
45.7	0.0197	431000	Fab 7092 (Fab, V domains shown, Fab from E. coli; also called VH48/VL48) VH: EVQLVESGGGLVQPGGSLRLSCAASGFSLSTSGMGVGWIRQAPGKGLEWVSYISGYGGTTYYADSVKGRFTISRDNSKNTLYLQLNSLRAEDTAVYYCAREGSDVVAGDWFAYWGQGTLVTVSS VL: DIQLTQSPSSLSASVGDRVTITCRASQGISSYLAWYQQKPGKAPKLLIYDASNLETGVPSRFSGSGSGTDFTLTISSLQPEDFATYYCQQYYSTPLTFGQGTKVEIKR
55.5	0.0173	312000	Fab 7090 (Fab, V domains shown, Fab from E. coli; also called VH47/VL47) VH: EVQLVESGGGLVQPGGSLRLSCAASGFSLSTGGVGVAWIRQAPGKGLEWVSYISGYGGTTYYADSVKGRFTISRDNSKNTLYLQLNSLRAEDTAVYYCAREGSTAVLGDWFAYWGQGTLVTVSS VL: DIQLTQSPSSLSASVGDRVTITCRASQGISSYLAWYQQKPGKAPKLLIYDASNLETGVPSRFSGSGSGTDFTLTISSLQPEDFATYYCQQYYSTPLTFGQGTKVEIKR
32	0.00555	173000	Fab 7109 (Fab, V domains shown, Fab from E. coli; also called VH52/VL52) VH: EVQLVESGGGLVQPGGSLRLSCAASGFSLSTSGVGVSWIRQAPGKGLEWVSYISGSGDTTYYADSVKGRFTISRDNSKNTLYLQLNSLRAEDTAVYYCAREGSDAVLGDWFAYWGQGTLVTVSS VL: DIQLTQSPSSLSASVGDRVTITCRASQGISSYLAWYQQKPGKAPKLLIYDASNLETGVPSRFSGSGSGTDFTLTISSLQPEDFATYYCQQYYSTPLTFGQGTKVEIKR
6.2	0.00101	162000	Fab 5349 (Fab, V domains shown, Fab from E. coli; also called VH24/VL24) VH: EVQLVESGGGLVQPGGSLRLSCAASGYSITSGHYWAWIRQAPGKGLEWVSAISGSGSSTYYADSVKGRFTISRDNSKNTLYLQLNSLRAEDTAVYYCARGGSDTVLGDWFAYWGQGTLVTVSS VL: DIQLTQSPSSLSASVGDRVTITCRASQGISSSLAWYQQKPGKAPKLLIYDASNLETGVPSRFSGSGSGTDFTLTISSLQPEDFATYYCQQGYSTWTFGQGTKVEIKR
7.44	0.000475	63800	Fab 4076 (Fab, V domains shown, Fab from E. coli; also called VH4/VL4) VH: EVQLVESGGGLVQPGGSLRLSCAASGYSITSGYHWGWIRQAPGKGLEWVSAISGAGGSTYYADSVKGRFTISRDNSKNTLYLQLNSLRAEDTAVYYCARDGYGGSYFDYWGQGTLVTVSS VL: DIQLTQSPSSLSASVGDRVTITCQASQDISTFLAWYQQKPGKAPKLLIYDASSLESGVPSRFSGSGSGTDFTLTISSLQPEDFATYYCQQAYSIWTFGQGTKVEIKR
1.76	0.000437	248000	Fab 5407 (Fab, V domains shown, Fab from E. coli; also called VH35/VL35) VH: EVQLVESGGGLVQPGASLRLSCAASGFSLSTGGVGVAWIRQAPGKGLEWVSSISGYGSTTYYADSVKGRFTISRDNSKNTLYLQLNSLRAEDTAVYYCAREGSDAVLGDWFGYWGQGTLVTVSS VL: DIQLTQSPSSLSASVGDRVTITCQASQDITTYLAWYQQKPGKAPKLLIYDASNRATGIPSRFSGSGSGTDFTLTISSLQPEDFATYYCQQGYYLWTFGQGTKVEIKR
40.4	0.00231	57200	Fab 5417 (Fab, V domains shown, Fab from E. coli; also called VH39/VL39) VH: EVQLVESGGGLVQPGGSLRLSCAASGFSLSTSGVGVAWIRQAPGKGLEWVSSISGAGGTTYYADSVKGRFTISRDNSKNTLYLQLNSLRAEDTAVYYCARGGSTAVTGDWFDYWGQGTLVTVSS VL: DIQLTQSPSSLSASVGDRVTITCRASQGISPYLAWYQQKPGKAPKLLIYDASNRATGIPSRFSGSGSGTDFTLTISSLQPEDFATYYCQQGYSLWTFGQGTKVEIKR
16.1	0.00977	605000	Fab 5346 (Fab, V domains shown, Fab from E. coli; also called VH22/VL22) VH: EVQLVESGGGLVQPGGSLRLSCAASGFSLSTGGVGVGWIRQAPGKGLEWVSGISGYGSTTYYADSVKGRFTISRDNSKNTLYLQLNSLRAEDTAVYYCAREGSDAVAGDWFDYWGQGTLVTVSS VL: DIQLTQSPSSLSASVGDRVTITCRASQDIRSYLAWYQQKPGKAPKLLIYDASNRATGIPSRFSGSGSGTDFTLTISSLQPEDFATYYCQQGYSIWTFGQGTKVEIKR
9.87	0.000826	83700	Fab 5363 (Fab, V domains shown, Fab from E. coli; also called VH29/VL29) VH: EVQLVESGGGLVQPGGSLRLSCAASGYSISSGHYWTWIRQAPGKGLEWVSAISGSGSSTYYADSVKGRFTISRDNSKNTLYLQLNSLRAEDTAVYYCARGGSDAVLGDWFAYWGQGTLVTVSS VL: DIQLTQSPSSLSASVGDRVTITCRASQGVGSYLAWYQQKPGKAPKLLIYDASNLETGVPSRFSGSGSGTDFTLTISSLQPEDFATYYCQQGYQLWTFGQGTKVEIKR
